Measured values as given in patent US7939292B2, “Modified heparinase III and methods of sequencing therewith” (Massachusetts Institute of Technology, priority 2000, dated 2011).
Where a chain is given by its changes, count along the chain named. Names and notes keep the numbering of the source.

Assays:
[1] = Heparinase III kinetic assay of r-heparinase III and histidine mutants; format: biochemical; settings: for kcat / Km: heparan sulfate; for Km: calculated assuming a molecular weight of 15 kDa
Protocol: The activity of heparinase III was measured using a UV 232 nm assay similar to those reported for heparinase I and heparinase II (Godavarti, R., Cooney, C. L., Langer, R., and Sasisekharan, R. (1996) Biochemistry 35, 6846-52; Shriver, Z., Hu, Y., and Sasisekharan, R. (1998) J. Biol. Chem. 273, 10160-67; and Lohse, D. and Linhardt, R. J. (1992) J. Biol. Chem. 267, 781-87). Briefly, the increase in absorbance at 232 nm as a function of time was monitored under saturating substrate conditions. All assays were performed with heparan sulfate at a concentration of 2 mg/ml in 50 mM sodium phosphate, pH 7.6. The temperature for enzymatic activity measurements was kept constant at 35° C.
In parallel to the mapping studies and to confirm the results of the chemical modification experiments, each of the thirteen histidine residues present in heparinase III was mutated to alanine. The recombinant heparinase III mutant proteins were expressed, purified, and assessed for enzymatic activity towards heparan sulfate (Table 2).

[2] = SAX-HPLC analysis of exhaustive heparan sulfate digests; format: biochemical
Protocol: Exhaustive digests of 3 mg/ml heparan sulfate in 50 mM sodium phosphate buffer, pH 7.6 were performed overnight at 37° C. for each of the mutants (20 μg protein). The reactions were loaded onto a Spherisorb S5 SAX column (Waters) and eluted using a linear gradient of 0.2-1.0 M NaCl, pH 3.5. The products were monitored at 232 nm and each of the major peaks was collected. To determine their composition, the collected fractions were analyzed by capillary electrophoresis and identified by comigration with known standards.
As a control, the r-heparinase III construct without its putative signal sequence was expressed. The concentration and purity of all recombinant enzyme preparations were determined using SDS-PAGE. The recombinantly expressed heparinase III was also compared to the heparinase III isolated from F. heparinum to ensure that they were the same molecular weight. Heparinase III (20 μg/mL) was incubated with a 4 mg/mL of heparan sulfate overnight at 37° C. The reaction was loaded onto a SAX column and the saccharide products were eluted using a gradient of 0.2-1.0 M NaCl, pH 3.5 over 30 min. and monitored at 232 nm. (A) Heparan sulfate digested with heparinase III from F. heparinum. (B) Heparan sulfate digested with recombinant heparinase III. (C) Heparan sulfate digested with the H295A mutant enzyme. (D) Heparan sulfate digested with the H510A mutant enzyme. (E) Heparan sulfate digested with the H105A mutant enzyme.

[3] = tested on: B16BL6 melanoma; assay: Primary tumor growth of B16BL6 melanoma in mice treated with heparinases; format: in vivo
From the text: Heparinases I and III, which have very distinct substrate specificities for cleaving HLGAGs, were employed as tools to investigate the role of HLGAGs in tumor growth and metastasis. While heparinase I cleaves at the highly sulfated regions of HLGAGs, heparinase III only cleaves at the under-sulfated regions of the polysaccharide chain, thereby rendering these enzymes powerful tools to investigate in vivo and in vitro roles of HLGAGs, in development, morphogenesis, angiogenesis etc. To examine the roles of HLGAGs in tumor growth and metastasis, we used B16BL6 melanoma as a model system and treated tumor-bearing mice with either heparinases I or III to investigate both primary tumor growth as well as tumor metastasis. Consistent with the current paradigm, heparinase I accelerated tumor growth (FIG. 8). At a dosage of 0.5 mg/kg/day of heparinase I, tumor growth was increased by about 39%. […] Inhibition of primary tumor growth by heparinase III was first observed at 2 mg/kg per day. Tumor growth was inhibited by 73% at 12 mg/kg per day, the maximum dosage tested in the study (FIG. 8).
Mice, 15 days after tumor implantation with B16BL6 melanoma, were examined. 4×10^5 log growth phase B16BL6 melanoma cells in 0.1 ml PBS were injected to the flank of C57BL/6 mice on day 1. Daily injection of 0.1 ml of PBS, heat inactivated hep III or active heparinase III (2 mg/ml, recombinantly expressed, purified, buffer exchanged with PBS, and concentrated) started at the day 4 and continued throughout the experiment. At day 7, osmotic pumps (100 μl capacity delivering at 0.5 μl per hour) containing PBS or 3 mg/ml hep III were implanted subcutaneously at a place remote from the tumor site. Mice were sacrificed at day 15.
FIG. 8 depicts the tumor volume of the tumors isolated from the mice described above. Tumor volume was measured daily after day 7 with a caliper and calculated with the formula [volume=0.52×(width)^2×(length)].

B1: wild-type r-heparinase III: recombinantly expressed heparinase III construct without its putative signal sequence, His-tagged, from E. coli (protein, UniProt Q59289 25-659, looked up)
Heparin-sulfate lyase: QSSSITRKDFDHINLEYSGLEKVNKAVAAGNYDDAAKALLAYYREKSKAREPDFSNAEKPADIRQPIDKVTREMADKALVHQFQPHKGYGYFDYGKDINWQMWPVKDNEVRWQLHRVKWWQAMALVYHATGDEKYAREWVYQYSDWARKNPLGLSQDNDKFVWRPLEVSDRVQSLPPTFSLFVNSPAFTPAFLMEFLNSYHQQADYLSTHYAEQGNHRLFEAQRNLFAGVSFPEFKDSPRWRQTGISVLNTEIKKQVYADGMQFELSPIYHVAAIDIFLKAYGSAKRVNLEKEFPQSYVQTVENMIMALISISLPDYNTPMFGDSWITDKNFRMAQFASWARVFPANQAIKYFATDGKQGKAPNFLSKALSNAGFYTFRSGWDKNATVMVLKASPPGEFHAQPDNGTFELFIKGRNFTPDAGVFVYSGDEAIMKLRNWYRQTRIHSTLTLDNQNMVITKARQNKWETGNNLDVLTYTNPSYPNLDHQRSVLFINKKYFLVIDRAIGEATGNLGVHWQLKEDSNPVFDKTKNRVYTTYRDGNNLMIQSLNADRTSLNEEEGKVSYVYNKELKRPAFVFEKPKKNAGTQNFVSIVYPYDGQKAPEISIRENKGNDFEKGKLNLTLTINGKQQLVLVP
modifications: His tag; no signal sequence
kcat [1]: 78 s⁻¹
Km [1]: 80 µM
heparan sulfate degradation product profile compared to wild type heparinase III ([2]; SAX-HPLC and capillary electrophoresis): identical product profile

B2: heat inactivated heparinase III: heat inactivated heparinase III used as control (protein, UniProt Q59289 25-659, looked up)
Heparin-sulfate lyase: B1 Heparin-sulfate lyase
modifications: heat inactivated
tumor mass upon visual inspection compared with active Hep III ([3]; day 15): significantly larger tumor masses
tumor growth curves compared with PBS treated mice ([3]; mouse, in vivo): comparable growth curves

B3: H105A: recombinant heparinase III with histidine 105 mutated to alanine (protein)
chain: MTTKIFKRIIVFAVIALSSGNILAQSSSITRKDFDHINLEYSGLEKVNKAVAAGNYDDAAKALLAYYREKSKAREPDFSNAEKPADIRQPIDKVTREMADKALVAQFQPHKGYGYFDYGKDINWQMWPVKDNEVRWQLHRVKWWQAMALVYHATGDEKYAREWVYQYSDWARKNPLGLSQDNDKFVWRPLEVSDRVQSLPPTFSLFVNSPAFTPAFLMEFLNSYHQQADYLSTHYAEQGNHRLFEAQRNLFAGVSFPEFKDSPRWRQTGISVLNTEIKKQVYADGMQFELSPIYHVAAIDIFLKAYGSAKRVNLEKEFPQSYVQTVENMIMALISISLPDYNTPMFGDSWITDKNFRMAQFASWARVFPANQAIKYFATDGKQGKAPNFLSKALSNAGFYTFRSGWDKNATVMVLKASPPGEFHAQPDNGTFELFIKGRNFTPDAGVFVYSGDEAIMKLRNWYRQTRIHSTLTLDNQNMVITKARQNKWETGNNLDVLTYTNPSYPNLDHQRSVLFINKKYFLVIDRAIGEATGNLGVHWQLKEDSNPVFDKTKNRVYTTYRDGNNLMIQSLNADRTSLNEEEGKVSYVYNKELKRPAFVFEKPKKNAGTQNFVSIVYPYDGQKAPEISIRENKGNDFEKGKLNLTLTINGKQQLVLVP
catalytic activity in overnight heparan sulfate digests ([2]; SAX-HPLC, overnight 37° C.): retain their catalytic activity

B4: H469A: recombinant heparinase III with histidine 469 mutated to alanine (protein)
chain: B3 chain with A105H, H469A
changes in recombinant protein yield, enzyme activity, or kinetic parameters compared with r-heparinase III [1]: no significant changes
kcat [1]: 100 s⁻¹
Km [1]: 71 µM

B5: H424A: recombinant heparinase III with histidine 424 mutated to alanine (protein)
chain: B3 chain with A105H, H424A
changes in recombinant protein yield, enzyme activity, or kinetic parameters compared with r-heparinase III [1]: no significant changes
kcat [1]: 24 s⁻¹
Km [1]: 59 µM

B6: H241A: recombinant heparinase III with histidine 241 mutated to alanine (protein)
chain: B3 chain with A105H, H241A
changes in recombinant protein yield, enzyme activity, or kinetic parameters compared with r-heparinase III [1]: no significant changes
kcat [1]: 5 s⁻¹
Km [1]: 16 µM
